Measurements published in PMC10675845.

Assays:
Assay in all cases: single-cell, single-molecule pull-down
[1] = target: GFP::CDC-42(S71E) (C. elegans) (UniProt Q05062)
[2] = target: GFP::CDC-42(S71A) (C. elegans) (UniProt Q05062)
GFP::CDC-42 (C. elegans) = GFP::CDC-42 (C. elegans) (UniProt Q05062)

Substance: HaloTag::aPKC (from UniProt Q19266 1-597) (enzyme)
- koff [1]: 0.099 s⁻¹
- koff [2]: 0.057 s⁻¹
- koff (GFP::CDC-42 (C. elegans)): 0.057 s⁻¹
